Experiments:
chemokine receptor CCR8 [1] = biological target: chemokine receptor CCR8 (UniProt P51685); test: cell-based or functional assay
chemokine receptor CCR8 [2] = biological target: chemokine receptor CCR8 (UniProt P51685 1-355, limits assumed); test: cell-based or functional assay
chemokine receptor CCR8 (UniProt P51685 1-355, limits assumed), sequence (P51685 whole entry): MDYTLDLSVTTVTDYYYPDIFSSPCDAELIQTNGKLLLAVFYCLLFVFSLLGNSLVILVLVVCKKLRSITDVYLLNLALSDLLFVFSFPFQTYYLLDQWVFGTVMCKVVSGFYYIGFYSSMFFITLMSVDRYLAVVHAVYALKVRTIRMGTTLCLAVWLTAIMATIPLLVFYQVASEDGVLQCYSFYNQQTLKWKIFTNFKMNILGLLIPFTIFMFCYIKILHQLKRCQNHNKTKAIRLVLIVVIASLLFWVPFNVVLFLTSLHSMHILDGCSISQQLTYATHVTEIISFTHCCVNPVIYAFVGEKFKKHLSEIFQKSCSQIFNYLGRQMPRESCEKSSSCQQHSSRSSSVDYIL

chemokine receptor CCR8 (UniProt P51685), sequence (P51685 whole entry): as above

Molecule	inhibition of 1-309 induced chemotaxis (IC50) (chemokine receptor CCR8 [1]) [nM]	also measured
recombinant MC148 protein (from UniProt Q98314 25-104) (ligand)	–	inhibition of 1-309 induced chemotaxis of cells expressing CCR8 (IC50) (chemokine receptor CCR8 [1]): 2 nM
MC148 fusion protein MC148p-TAT-6xHis	200	–
synthetic MC148 protein (from UniProt Q98314 1-104) (ligand)	> 15000	–
VSLARRKCCL [peptide fragment VL-10]	–	inhibition of 1-309 induced chemotaxis (IC50) (chemokine receptor CCR8 [2]): > 15 µM
